This is an account of results in the supplement of paper PMC9112550, “Optimization of the antimicrobial peptide Bac7 by deep mutational scanning” (BMC Biology, 2022).
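Note: peptides expressed intracellularly from a pBAD plasmid library in pooled LB shake-flask culture, induced with 0.3% L-arabinose, DNA abundance read by NGS, three biological replicates, DESeq2 with apeglm shrinkage.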

The subject of this data set is Escherichia coli TOP10. Put plainly: shrunken log2 fold change of peptide-encoding DNA abundance (4.5 h post-induction vs induction); higher = less antimicrobial activity (less host growth inhibition). The settings on record: time post-induction: 4.5 h; library: site-saturation at positions 5, 18, 19, 20.
For RRIRTRPPRLPRPRPRPWTAPRP, the “shrunken log2 fold change” value is -0.124.

As to RRIRKRPPRLPRPRPRPCNNPRP, the “shrunken log2 fold change” value was -0.474.

As for RRIRVRPPRLPRPRPRPETWPRP, the “shrunken log2 fold change” value is 0.0351.

Consider RRIRPRPPRLPRPRPRPVKPPRP, for which the “shrunken log2 fold change” value was -0.14.

On to RRIRDRPPRLPRPRPRPAGAPRP, for which the “shrunken log2 fold change” value is 0.509.

As to RRIRMRPPRLPRPRPRPHVPPRP, the “shrunken log2 fold change” value was 0.107.

For RRIRHRPPRLPRPRPRPPENPRP, the “shrunken log2 fold change” value is 0.116.

Take RRIRCRPPRLPRPRPRPQHAPRP: the “shrunken log2 fold change” value is -0.0229.

On to RRIRIRPPRLPRPRPRPPATPRP, for which the “shrunken log2 fold change” value amounted to 0.177.

For RRIRMRPPRLPRPRPRPYLMPRP, the “shrunken log2 fold change” value is -0.357.

For RRIRARPPRLPRPRPRPVGNPRP, the “shrunken log2 fold change” value amounted to 0.0787.

RRIRSRPPRLPRPRPRPDTCPRP: the “shrunken log2 fold change” value was -0.225.

RRIRRRPPRLPRPRPRPMMIPRP: the “shrunken log2 fold change” value is -0.185.

As to RRIRLRPPRLPRPRPRPSGAPRP, the “shrunken log2 fold change” value is -0.0192.

RRIRERPPRLPRPRPRPVLDPRP: the “shrunken log2 fold change” value was -0.12.

For the sequence RRIRCRPPRLPRPRPRPKHWPRP, the “shrunken log2 fold change” value is 0.00902.

For the sequence RRIRFRPPRLPRPRPRPDLDPRP, the “shrunken log2 fold change” value is -0.0913.

With RRIRKRPPRLPRPRPRPQCQPRP, the “shrunken log2 fold change” value stood at 0.114.

Consider RRIRPRPPRLPRPRPRPKTYPRP, for which the “shrunken log2 fold change” value is -0.451.

On to RRIRHRPPRLPRPRPRPHMDPRP, for which the “shrunken log2 fold change” value was -0.162.

Take RRIRFRPPRLPRPRPRPGVDPRP: the “shrunken log2 fold change” value is -0.145.

As for RRIRERPPRLPRPRPRPEEQPRP, the “shrunken log2 fold change” value was 0.221.

With RRIRPRPPRLPRPRPRPCTTPRP, the “shrunken log2 fold change” value was -0.732.

As to RRIRIRPPRLPRPRPRPAAHPRP, the “shrunken log2 fold change” value was -0.0526.

RRIRWRPPRLPRPRPRPLSHPRP: the “shrunken log2 fold change” value came out at 0.000856.

Take RRIRARPPRLPRPRPRPLSLPRP: the “shrunken log2 fold change” value was -0.0486.

On to RRIRRRPPRLPRPRPRPRFCPRP, for which the “shrunken log2 fold change” value came out at 0.421.

Regarding RRIRLRPPRLPRPRPRPTCWPRP, the “shrunken log2 fold change” value was found to be 0.393.

With RRIRMRPPRLPRPRPRPRVEPRP, the “shrunken log2 fold change” value is 0.379.

Regarding RRIRLRPPRLPRPRPRPEQDPRP, the “shrunken log2 fold change” value is -0.125.

With RRIRVRPPRLPRPRPRPFPEPRP, the “shrunken log2 fold change” value is -0.24.

Consider RRIRVRPPRLPRPRPRPPGEPRP, for which the “shrunken log2 fold change” value turned out to be 0.511.

For RRIRMRPPRLPRPRPRPYADPRP, the “shrunken log2 fold change” value was 0.419.

For RRIRARPPRLPRPRPRPFSTPRP, the “shrunken log2 fold change” value is -0.572.

With RRIRGRPPRLPRPRPRPICGPRP, the “shrunken log2 fold change” value was determined as 0.728.

With RRIRWRPPRLPRPRPRPAKHPRP, the “shrunken log2 fold change” value was determined as 0.192.

Regarding RRIRSRPPRLPRPRPRPCCDPRP, the “shrunken log2 fold change” value was -0.284.

On to RRIRIRPPRLPRPRPRPSCHPRP, for which the “shrunken log2 fold change” value was -0.243.

As for RRIRKRPPRLPRPRPRPYRIPRP, the “shrunken log2 fold change” value is -0.0846.

In the case of RRIRLRPPRLPRPRPRPRSLPRP, the “shrunken log2 fold change” value was 0.0255.

With RRIRNRPPRLPRPRPRPFFHPRP, the “shrunken log2 fold change” value is -0.446.

Turning to RRIRPRPPRLPRPRPRPTKPPRP, the “shrunken log2 fold change” value is 0.323.

Regarding RRIRYRPPRLPRPRPRPVTAPRP, the “shrunken log2 fold change” value is -0.298.

For RRIRQRPPRLPRPRPRPICNPRP, the “shrunken log2 fold change” value was -0.211.

Consider RRIRARPPRLPRPRPRPAPKPRP, for which the “shrunken log2 fold change” value came out at 1.

Consider RRIRHRPPRLPRPRPRPTIRPRP, for which the “shrunken log2 fold change” value is -0.689.

On to RRIRSRPPRLPRPRPRPQVVPRP, for which the “shrunken log2 fold change” value is -0.144.

On to RRIRFRPPRLPRPRPRPWLTPRP, for which the “shrunken log2 fold change” value is -0.0554.

With RRIRERPPRLPRPRPRPHRAPRP, the “shrunken log2 fold change” value was -0.0349.

Take RRIRHRPPRLPRPRPRPKNFPRP: the “shrunken log2 fold change” value is -0.0655.

Consider RRIRKRPPRLPRPRPRPDALPRP, for which the “shrunken log2 fold change” value is 0.132.

Regarding RRIRYRPPRLPRPRPRPAYCPRP, the “shrunken log2 fold change” value is -0.0229.

For RRIRNRPPRLPRPRPRPLLPPRP, the “shrunken log2 fold change” value is 0.0144.

On to RRIRQRPPRLPRPRPRPMCHPRP, for which the “shrunken log2 fold change” value was -0.136.

For the sequence RRIRSRPPRLPRPRPRPSMFPRP, the “shrunken log2 fold change” value is -0.18.

As to RRIRKRPPRLPRPRPRPFGFPRP, the “shrunken log2 fold change” value was -0.137.

For RRIRQRPPRLPRPRPRPAIAPRP, the “shrunken log2 fold change” value came out at 0.0382.

Consider RRIRSRPPRLPRPRPRPYITPRP, for which the “shrunken log2 fold change” value is -0.535.

Take RRIRFRPPRLPRPRPRPHVMPRP: the “shrunken log2 fold change” value is -0.288.

Take RRIRSRPPRLPRPRPRPTHYPRP: the “shrunken log2 fold change” value was -0.125.

RRIRWRPPRLPRPRPRPMNLPRP: the “shrunken log2 fold change” value was -0.063.

In the case of RRIRKRPPRLPRPRPRPQEKPRP, the “shrunken log2 fold change” value was -0.0233.

As for RRIRLRPPRLPRPRPRPVDLPRP, the “shrunken log2 fold change” value is -0.418.

RRIRQRPPRLPRPRPRPPSDPRP: the “shrunken log2 fold change” value is 1.18.

Turning to RRIRIRPPRLPRPRPRPNSPPRP, the “shrunken log2 fold change” value was 0.00971.

On to RRIRKRPPRLPRPRPRPLTAPRP, for which the “shrunken log2 fold change” value was determined as 0.403.

In the case of RRIRHRPPRLPRPRPRPPSRPRP, the “shrunken log2 fold change” value came to 0.17.

RRIRRRPPRLPRPRPRPFLGPRP: the “shrunken log2 fold change” value was 0.187.

With RRIRVRPPRLPRPRPRPEFWPRP, the “shrunken log2 fold change” value came to 0.439.

Consider RRIRIRPPRLPRPRPRPDVLPRP, for which the “shrunken log2 fold change” value was -1.

RRIRDRPPRLPRPRPRPCYGPRP: the “shrunken log2 fold change” value is -0.0515.

On to RRIRHRPPRLPRPRPRPTKYPRP, for which the “shrunken log2 fold change” value is -0.345.

For RRIRYRPPRLPRPRPRPAHCPRP, the “shrunken log2 fold change” value came out at 0.0564.

Regarding RRIRKRPPRLPRPRPRPAWVPRP, the “shrunken log2 fold change” value amounted to 0.483.

For RRIRHRPPRLPRPRPRPPHLPRP, the “shrunken log2 fold change” value was determined as 0.0576.

Take RRIRHRPPRLPRPRPRPIKIPRP: the “shrunken log2 fold change” value was -0.62.

For the sequence RRIRYRPPRLPRPRPRPYVSPRP, the “shrunken log2 fold change” value was -0.0075.

In the case of RRIRRRPPRLPRPRPRPNTYPRP, the “shrunken log2 fold change” value is -0.336.

Take RRIRDRPPRLPRPRPRPWKNPRP: the “shrunken log2 fold change” value was -0.0182.

With RRIRTRPPRLPRPRPRPQMWPRP, the “shrunken log2 fold change” value is -0.0505.

As to RRIRHRPPRLPRPRPRPMICPRP, the “shrunken log2 fold change” value was -0.163.

On to RRIRTRPPRLPRPRPRPCGYPRP, for which the “shrunken log2 fold change” value was -0.0816.

Take RRIRSRPPRLPRPRPRPYLDPRP: the “shrunken log2 fold change” value was -0.175.

With RRIRSRPPRLPRPRPRPKSEPRP, the “shrunken log2 fold change” value was determined as 0.0504.

Turning to RRIRNRPPRLPRPRPRPRVEPRP, the “shrunken log2 fold change” value was 0.345.

In the case of RRIRYRPPRLPRPRPRPSANPRP, the “shrunken log2 fold change” value was -0.0919.

For RRIRCRPPRLPRPRPRPTYGPRP, the “shrunken log2 fold change” value was -0.0844.

With RRIRHRPPRLPRPRPRPMDGPRP, the “shrunken log2 fold change” value is -0.0367.

Consider RRIRGRPPRLPRPRPRPIDQPRP, for which the “shrunken log2 fold change” value was found to be 0.436.

With RRIRMRPPRLPRPRPRPWEMPRP, the “shrunken log2 fold change” value is -0.0802.

In the case of RRIRERPPRLPRPRPRPAKFPRP, the “shrunken log2 fold change” value was determined as 0.112.

As to RRIRNRPPRLPRPRPRPTNFPRP, the “shrunken log2 fold change” value worked out at 0.0354.

With RRIRGRPPRLPRPRPRPRGWPRP, the “shrunken log2 fold change” value is 1.68.

RRIRQRPPRLPRPRPRPQAHPRP: the “shrunken log2 fold change” value is -0.23.

On to RRIRPRPPRLPRPRPRPNQFPRP, for which the “shrunken log2 fold change” value is -0.204.

As for RRIRERPPRLPRPRPRPRQRPRP, the “shrunken log2 fold change” value worked out at 0.32.

For RRIRMRPPRLPRPRPRPGCFPRP, the “shrunken log2 fold change” value is 0.773.

In the case of RRIRCRPPRLPRPRPRPNHMPRP, the “shrunken log2 fold change” value was -0.255.

As for RRIRDRPPRLPRPRPRPFWLPRP, the “shrunken log2 fold change” value came out at 0.00235.

Regarding RRIRHRPPRLPRPRPRPTHQPRP, the “shrunken log2 fold change” value worked out at 0.243.

Turning to RRIRNRPPRLPRPRPRPYHQPRP, the “shrunken log2 fold change” value was -0.308.

In the case of RRIRRRPPRLPRPRPRPYGTPRP, the “shrunken log2 fold change” value is -0.231.

On to RRIRPRPPRLPRPRPRPSTAPRP, for which the “shrunken log2 fold change” value is -0.105.

In the case of RRIRHRPPRLPRPRPRPGFDPRP, the “shrunken log2 fold change” value is 0.105.

Take RRIRRRPPRLPRPRPRPFCIPRP: the “shrunken log2 fold change” value is -0.174.

As to RRIRPRPPRLPRPRPRPNDMPRP, the “shrunken log2 fold change” value was -0.208.

In the case of RRIRARPPRLPRPRPRPSAGPRP, the “shrunken log2 fold change” value turned out to be 0.65.

Turning to RRIRVRPPRLPRPRPRPSDHPRP, the “shrunken log2 fold change” value was -0.0923.

For RRIRHRPPRLPRPRPRPRIHPRP, the “shrunken log2 fold change” value was -0.473.

Turning to RRIRIRPPRLPRPRPRPHIAPRP, the “shrunken log2 fold change” value is -0.957.

Take RRIRDRPPRLPRPRPRPQACPRP: the “shrunken log2 fold change” value was determined as 0.303.

With RRIRIRPPRLPRPRPRPWGAPRP, the “shrunken log2 fold change” value came out at 0.0191.

Turning to RRIRERPPRLPRPRPRPQCDPRP, the “shrunken log2 fold change” value is -0.162.

Turning to RRIRERPPRLPRPRPRPGLKPRP, the “shrunken log2 fold change” value came out at 0.131.

On to RRIRLRPPRLPRPRPRPDMAPRP, for which the “shrunken log2 fold change” value was determined as 0.0097.

Take RRIRTRPPRLPRPRPRPALHPRP: the “shrunken log2 fold change” value is -0.19.

For RRIRIRPPRLPRPRPRPAQEPRP, the “shrunken log2 fold change” value is -0.0756.

Consider RRIRMRPPRLPRPRPRPIFDPRP, for which the “shrunken log2 fold change” value came out at 0.00763.

Consider RRIRNRPPRLPRPRPRPACRPRP, for which the “shrunken log2 fold change” value stood at 0.4.

Consider RRIRGRPPRLPRPRPRPRFQPRP, for which the “shrunken log2 fold change” value stood at 0.158.

For the sequence RRIRFRPPRLPRPRPRPCVQPRP, the “shrunken log2 fold change” value was -0.182.

For the sequence RRIRFRPPRLPRPRPRPCVVPRP, the “shrunken log2 fold change” value was -0.379.

Regarding RRIRTRPPRLPRPRPRPYKSPRP, the “shrunken log2 fold change” value is -0.118.

For the sequence RRIRCRPPRLPRPRPRPTEWPRP, the “shrunken log2 fold change” value was 0.063.

For the sequence RRIRWRPPRLPRPRPRPGFNPRP, the “shrunken log2 fold change” value amounted to 0.00388.
